This passage reports binding result and Kd results from US20190330338A1 (UNIVERSITY OF UTAH RESEARCH FOUNDATION, published 2019).

Where two headings read alike, the source gives them in different places.

Assay [1] addresses T1, recombinant CD229 (human, UniProt Q9HBG7 48-454, limits assumed).
T1 construct: Labeled with allophycocyanin in the CAR flow cytometry assay; also called APC-labeled recombinant CD229; immobilized recombinant CD229
T1 sequence (looked up): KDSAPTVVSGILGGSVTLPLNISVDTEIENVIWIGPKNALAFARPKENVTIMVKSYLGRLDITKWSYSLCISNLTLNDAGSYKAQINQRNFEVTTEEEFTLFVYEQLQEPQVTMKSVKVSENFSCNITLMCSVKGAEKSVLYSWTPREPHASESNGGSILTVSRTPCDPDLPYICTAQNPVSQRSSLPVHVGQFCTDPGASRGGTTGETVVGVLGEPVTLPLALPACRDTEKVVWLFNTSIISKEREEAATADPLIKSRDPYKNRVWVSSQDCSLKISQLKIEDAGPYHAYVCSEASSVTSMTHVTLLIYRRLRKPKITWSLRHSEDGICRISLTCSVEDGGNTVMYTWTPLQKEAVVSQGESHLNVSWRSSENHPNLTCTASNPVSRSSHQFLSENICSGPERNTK
Nature of the assay: competition SPR on immobilized CD229. An excerpt:
FIGS. 5A, 5B, 5C, 5D, and 5E show the binding, cross-reactivity, and selectivity of anti CD229 CAR T cells. (A) Cross-reactivity screening of 2 anti-CD229 antibody clones expressed as scFv-Fc constructs in mammalian cells by TRF assay using recombinant SLAM family members. […] (B) Cytotoxic activity of primary human T cells expressing CAR constructs based on two antibodies or GFP alone against CD229 positive myeloma cell line U266 and healthy autologous T cells as determined by flow cytometry. Anti-CD229 CARs specifically kill myeloma cells but not healthy T cells co-expressing CD229. […] (E) Competition SPR using immobilized CD229 and sequential injections of the primary antibodies followed by individual injection of antibodies to determine their ability to compete for the epitope recognized by the primary antibody. 1D5 and 2D3 occupy the same epitope space while 2A2 binds to a distinct epitope. Due to the lack of self-competition, 2A2 most likely binds to an epitope occurring twice in recombinant CD229, a tandem Ig domain-containing protein.

The target in assay [2] is T2, recombinant CD229 (human, UniProt Q9HBG7 48-454).
T2 chain: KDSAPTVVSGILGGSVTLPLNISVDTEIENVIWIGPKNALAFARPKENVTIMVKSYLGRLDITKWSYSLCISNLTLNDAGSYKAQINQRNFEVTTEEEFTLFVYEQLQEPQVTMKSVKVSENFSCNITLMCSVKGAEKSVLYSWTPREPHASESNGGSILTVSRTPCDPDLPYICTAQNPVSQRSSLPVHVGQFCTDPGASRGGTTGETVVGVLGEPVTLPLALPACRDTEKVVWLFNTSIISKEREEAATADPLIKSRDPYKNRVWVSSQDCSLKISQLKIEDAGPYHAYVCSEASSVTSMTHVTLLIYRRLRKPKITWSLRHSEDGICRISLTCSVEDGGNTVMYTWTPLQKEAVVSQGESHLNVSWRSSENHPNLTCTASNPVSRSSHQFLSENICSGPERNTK
Nature of the assay: SPR. A general note: SPR reads the build-up and loss of mass on a sensor chip optically.

Assay [3] has as its target T2, recombinant CD229. Nature of the assay: SPR.
Assay [4] addresses T1, recombinant CD229. Nature of the assay: flow cytometry of 293T cells expressing the CAR, stained with APC-labeled recombinant CD229. How it is done:
In the final CAR construct, the scFv can be joined directly to a 45 amino acid hinge domain, which can alter binding properties of the antibodies. […] 20 of the 23 unique scFv binders still recognized CD229 with the new C-terminal fusion partner. All 23 unique binders were cloned into the CAR vector (FIG. 7D). The second-generation CAR construct uses a CD8α hinge and transmembrane domain with a CD3ζ signaling and a 4-1BB costimulatory domain. In addition, a hemagglutinin (HA) tag was added between the scFv and hinge domains to allow the simultaneous assessment of antigen binding and surface expression (FIG. 7D).
(Flow cytometry measures light scatter and fluorescence of single cells or particles in a stream.)

B1: anti-CD229 antibody clone 2A2 expressed as scFv-Fc (Fc fusion)
chain: QMQLVQSGAEVKKPGSSVKVSCKASGGTFSSYAISWVRQAPGQGLEWMGGIIPIFGTANYAQKFQGRVTITADKSTSTAYMELSSLRSDDTAVYYCARDELWATNYYYMDVWGKGTLVTVSSLEGGGGSGGGGSGGGASQSALTQPRSVSGSPGQSVTISCTGTSSDVGSYNYVSWYQQSPGKAPKLMIYDVSNRPSGVSNRFSGSKSGNTASLTISGLQSEDEADYYCTSYGSYDIPVIFGGGTKLTVLG
notes: scFv fused C-terminally to an immunoglobulin Fc domain, expressed in mammalian cells; not shown: immunoglobulin Fc domain
Regarding B1, the binding result with recombinant CD229 [1] is “binds”. Also, the Kd with recombinant CD229 [2] and with recombinant CD229 [3] was 18.4 nM in each case.

B2: anti-CD229 CAR construct, Clone 2A2 (other)
chain: QMQLVQSGAEVKKPGSSVKVSCKASGGTFSSYAISWVRQAPGQGLEWMGGIIPIFGTANYAQKFQGRVTITADKSTSTAYMELSSLRSDDTAVYYCARDELWATNYYYMDVWGKGTLVTVSSLEGGGGSGGGGSGGGASQSALTQPRSVSGSPGQSVTISCTGTSSDVGSYNYVSWYQQSPGKAPKLMIYDVSNRPSGVSNRFSGSKSGNTASLTISGLQSEDEADYYCTSYGSYDIPVIFGGGTKLTVLG
notes: CAR expressed on cells; also called anti-CD229 CAR clone 2A2; not shown: HA tag, CD8alpha hinge and transmembrane domain, 4-1BB co-stimulatory and CD3zeta signaling domains
As to B2, in the assay with recombinant CD229 [4], the binding result was “binds”.

B3: anti-CD229 CAR construct, Clone 1A9 (other)
chain: QITLKESGPTLVKPTQTLTLTCTFSGFSLSTSGVGVGWIRQPPGKALEWLALIYWNDDKRYSPSLKSRLTIAKDTSKNQVVLTMTNMDPVDTATYYCARMGWNDPHMVDYWGQGTLVTVSSLEGGGGSGGGGSGGGASDIQMTQSPSSLSASVGDRVTITCRASQSIGSSLHWYQQKPGKAPKFLIYDASSLESGVPSRFSGSGSGTEFTLTISSLQPDDFATYYCQQYNSYPLTFGGGTKLEIKR
notes: CAR expressed on cells; not shown: HA tag, CD8alpha hinge and transmembrane domain, 4-1BB co-stimulatory and CD3zeta signaling domains
For the molecule B3, the binding result with recombinant CD229 [4] is “binds”.

One may read the Kd as the constant that tells how readily two partners part at equilibrium.
